For this data set the following is noted: Escherichia phage lambda, Thermal, DSC, Potassium phosphate 20 nM, whole UniProt chain shown.

B1: Regulatory protein cro wild type, P03040 (protein)
chain: MEQRITLKDYAMRFGQTKTAKDLGVYQSAINKAIHAGRKIFLTINADGSVYAEEVKPFPSNKKTTA
For orientation: Tm means the temperature at the midpoint of the melting transition. With B1, where the note is “pH 5.18”, the Tm amounted to 35.5 °C, the “heat capacity change of unfolding” value is 1.51 kcal/mol/K, the “unfolding enthalpy (calorimetric)” value is 34.9 kcal/mol and the “unfolding enthalpy (van 't Hoff)” value is 37.3 kcal/mol. For the same protein, where the note is “pH 5.48”, the Tm is 38 °C, the “heat capacity change of unfolding” value is 1.61 kcal/mol/K, the “unfolding enthalpy (calorimetric)” value came to 39 kcal/mol and the “unfolding enthalpy (van 't Hoff)” value amounted to 40.7 kcal/mol. In addition, where the note is “pH 6”, the Tm was determined as 44 °C, the “heat capacity change of unfolding” value stood at 1.66 kcal/mol/K, the “unfolding enthalpy (calorimetric)” value worked out at 48.1 kcal/mol and the “unfolding enthalpy (van 't Hoff)” value was 51 kcal/mol. Besides, under “pH 7”, the Tm was 46.2 °C, the “heat capacity change of unfolding” value came out at 1.36 kcal/mol/K, the “unfolding enthalpy (calorimetric)” value worked out at 52.9 kcal/mol and the “unfolding enthalpy (van 't Hoff)” value stood at 52.4 kcal/mol.

Source of the values: FireProtDB (doi:10.1021/bi00165a022).
